Data from patent US20090298765A1 (Takeda / Millennium, published 2009).
Starred links: 1 amine or outer side, 2 acyl side, 3 side chain; linkers in the order of their positions; H or OH if unused. Non-standard residues stand in square brackets, D forms with d. Primed or numbered codes have the meaning given here. No end group written: not given here. Trp(For)″ = Trp(CHO), formyl-Trp, O=Cn1cc(C[C@H](N[*:1])C(=O)[*:2])c2ccccc21; Arg(Me) = CNC(=N)NCCC[C@H](N)C(=O)O; azaGly = NNC(=O)O

Target: T1, human OT7T175 (metastin receptor) (human, UniProt Q969F8 1-398)
T1 construct: expressed on CHO cells; also called hOT7T175; hOT7T175-expressed CHO cells
T1 sequence (Q969F8 whole entry L364H): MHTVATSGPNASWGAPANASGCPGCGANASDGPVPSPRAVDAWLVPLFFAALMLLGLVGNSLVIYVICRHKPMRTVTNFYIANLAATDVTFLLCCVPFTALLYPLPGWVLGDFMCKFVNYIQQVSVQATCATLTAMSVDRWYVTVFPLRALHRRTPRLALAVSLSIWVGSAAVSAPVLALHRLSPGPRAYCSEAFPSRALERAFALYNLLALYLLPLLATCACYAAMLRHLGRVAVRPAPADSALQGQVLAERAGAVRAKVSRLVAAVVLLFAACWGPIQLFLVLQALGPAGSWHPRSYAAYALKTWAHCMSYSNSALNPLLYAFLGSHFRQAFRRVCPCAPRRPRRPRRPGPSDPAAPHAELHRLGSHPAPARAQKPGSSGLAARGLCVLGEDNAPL
Experiment: competition with Cy-5 metastin (40-54) on hOT7T175-CHO cells, FMAT
Method: hOT7T175-Expressed CHO cells were cultured in MEM-α medium (nucleic acid-free) containing 10% dialyzed serum. The medium was removed and the adhered cells were washed with PBS. Then, PBS containing 5 mM EDTA was added and the cells were scraped from a flask with a cell scraper.
To each well of a 96-Well Black Clear Bottom Microplate (Applied Biosystems, Inc.), 10 μL of assay buffer containing 1% dimethylsulfoxide was added to examine total binding, 10 μL of 10 μM non-labeled peptide (having the same amino acid sequence as that of labeled one) solution diluted with assay buffer to examine non-specific binding, and 10 μL of a test compound diluted with assay buffer to examine a binding inhibition activity of the test compound, and furthermore, 90 μL each of the cell suspension was dispensed to each well. […] Specific binding is calculated as non-specific binding subtracted from total binding. The binding inhibition activity of a test compound is shown by a ratio of the value obtained by subtracting a measured value in presence of a test compound from the total binding to the specific binding.

B1: des(1-2)-Acetyl-[Arg3,AzaGly7,Arg(Me)9]MS10 (peptide)
peptide: Ac-RNSF[azaGly]L[Arg(Me)]F-NH2
SMILES: CNC(=N)NCCC[C@H](NC(=O)[C@H](CC(C)C)NC(=O)NNC(=O)[C@H](Cc1ccccc1)NC(=O)[C@H](CO)NC(=O)[C@H](CC(N)=O)NC(=O)[C@H](CCCNC(=N)N)NC(C)=O)C(=O)N[C@@H](Cc1ccccc1)C(N)=O
notes: also called Compound No. 275
With B1 the IC50 was 410 nM.

B2: des(1-2)-Acetyl-[Thr3,AzaGly7,Arg(Me)9]MS10 (peptide)
peptide: Ac-TNSF[azaGly]L[Arg(Me)]F-NH2
SMILES: CNC(=N)NCCC[C@H](NC(=O)[C@H](CC(C)C)NC(=O)NNC(=O)[C@H](Cc1ccccc1)NC(=O)[C@H](CO)NC(=O)[C@H](CC(N)=O)NC(=O)[C@@H](NC(C)=O)[C@@H](C)O)C(=O)N[C@@H](Cc1ccccc1)C(N)=O
notes: also called Compound No. 276
B2 showed an IC50 of 480 nM.

Work on ANWNSFGLRF-NH2 (also called Compound No. 72) [[Ala1]MS10] yielded an IC50 of 540 nM.

Work on YNDNSFGLRF-NH2 (also called Compound No. 70) [[Asp3]MS10] yielded an IC50 of 200 nM.

[dY]NSNSF[azaGly]L[Arg(Me)]F-NH2 (also called Compound No. 191) [[D-Tyr1,Ser3,AzaGly7,Arg(Me)9]MS10] showed an IC50 of 300 nM.

With YNSNSFGLRF-NH2 (also called Compound No. 69) [[Ser3]MS10] the IC50 was 83 nM.

With YLWNSFGLRF-NH2 (also called Compound No. 59) [[Leu2]MS10] the IC50 was 340 nM.

Work on YNKNSFGLRF-NH2 (also called Compound No. 71) [[Lys3]MS10] yielded an IC50 of 66 nM.

B3: [D-Tyr1,Pro3,AzaGly7,Arg(Me)9]MS10 (peptide)
peptide: [dY]NPNSF[azaGly]L[Arg(Me)]F-NH2
modifications: N-terminus assumed
SMILES: CNC(=N)NCCC[C@H](NC(=O)[C@H](CC(C)C)NC(=O)NNC(=O)[C@H](Cc1ccccc1)NC(=O)[C@H](CO)NC(=O)[C@H](CC(N)=O)NC(=O)[C@@H]1CCCN1C(=O)[C@H](CC(N)=O)NC(=O)[C@H](N)Cc1ccc(O)cc1)C(=O)N[C@@H](Cc1ccccc1)C(N)=O
notes: also called Compound No. 253
With B3 the IC50 was 27 nM.

Binder YDWNSFGLRF-NH2 (also called Compound No. 57) [[Asp2]MS10] has an IC50 of 100 nM.

YNANSFGLRF-NH2 (also called Compound No. 67) [[Ala3]MS10] gave an IC50 of 27 nM.

With YNWNSFGLKF-NH2 (also called Compound No. 44) [[Lys9]MS10] the IC50 was 190 nM.

Binder YNWNYFGLRF-NH2 (also called Compound No. 23) [[Tyr5]MS10] has an IC50 of 400 nM.

Binder YYWNSFGLRF-NH2 (also called Compound No. 58) [[Tyr2]MS10] has an IC50 of 16 nM.

With YNWNSYGLRF-NH2 (also called Compound No. 150) [[Tyr6]MS10] the IC50 was 320 nM.

Binder [dY]N[dA]NSF[azaGly]L[Arg(Me)]F-NH2 (also called Compound No. 252) [[D-Tyr1,D-Ala3,AzaGly7,Arg(Me)9]MS10] has an IC50 of 580 nM.

Work on LNWNSFGLRF-NH2 (also called Compound No. 73) [[Leu1]MS10] yielded an IC50 of 220 nM.

In the case of [dY]NTNSF[azaGly]L[Arg(Me)]F-NH2 (also called Compound No. 221) [[D-Tyr1,Thr3,AzaGly7,Arg(Me)9]MS10], the IC50 is reported as 95 nM.

For YNWNSFGLR[Trp(For)″]-NH2 (also called Compound No. 186) [[Trp(For)10]MS10], the IC50 was 460 nM.

YNWNSFGVRF-NH2 (also called Compound No. 107) [[Val8]MS10] was tested, and the IC50 was 120 nM.

Work on YNLNSFGLRF-NH2 (also called Compound No. 68) [[Leu3]MS10] yielded an IC50 of 7.7 nM.

With NWNSFGLRF-NH2 (also called Compound No. 4) [des(1)-MS10] the IC50 was 260 nM.
